Laboratory results: US20240409663A1 (CONCEPT TO MEDICINE BIOTECH, published 2024)
Like-named read-outs stand apart in the source and are kept apart here.

Columns and labels:
human GPC3 on cells [1] = biological target: T1, human GPC3 on cells (human, UniProt P51654 25-554); experiment: FACS, GPC3-CHOK1 cells
T1 construct: whole, on cells; over-expressed on CHOK1 cells or endogenous on HEPG2, Hep3B and Huh-7 hepatocellular carcinoma cells; the cell line is named under assay; also called GPC3-CHOK1 cells; human GPC3 over-expressed CHOK1 cells
Protocol: (§1) To evaluate the antigen binding property, the humanized antibodies were analyzed for their binding to human GPC3 over-expressed CHOK1 cells and Huh-7 cells by FACS. Briefly, GPC3-CHOK1 cells and Huh-7 cells were firstly incubated with Fc blocking reagent at 4° C. for 15 mins. Cells were washed by FACS buffer and divided to each well with 4-fold serially diluted humanized antibodies starting at 10 μg/mL at 4° C. for 60 mins. Cells were washed by FACS buffer and fixed with 2% PFA at RT for 15 mins. […] As different plates might affect the EC50 of 52H5D3B8-VH+VL, the 12 humanized antibodies were separated into two plates.

human GPC3 on cells [2] = biological target: T1, human GPC3 on cells; experiment: FACS, Huh-7 cells
Protocol: as §1

[3] = biological target: T2, human GPC3-his tag protein (human, UniProt P51654 25-559, limits assumed); experiment: SPR Biacore 8K, mAb captured, affinity ranking
T2 construct: recombinant soluble antigen used as analyte in all Biacore runs; also called recombinant GPC3 protein; rhGPC3-His; not shown: His tag
Protocol: To evaluate antigen binding activity, the chimeric antibody's affinity was measured by Biacore 8K. Two concentrations with most close affinity to the chimeric antibody's affinity were chosen for the 12 humanized antibodies' affinity detection. Human GPC3-his tag protein was injected over captured antibody for 3 mins at a flow rate of 30 μl/min. The antigen was allowed to dissociate for 720 s.

human GPC3 on cells [4] = biological target: T1, human GPC3 on cells; experiment: FACS, GPC3-CHOK1 cells
human GPC3 on cells [5] = biological target: T1, human GPC3 on cells; experiment: FACS, HEPG2 cells
human GPC3 on cells [6] = biological target: T1, human GPC3 on cells; experiment: cell-based or functional assay
human GPC3 on cells [7] = biological target: T1, human GPC3 on cells; experiment: FACS, Huh-7 cells
human GPC3 on cells [8] = biological target: T1, human GPC3 on cells; experiment: FACS, HEPG2 cells; remark: listed apart in the source
human GPC3 on cells [9] = biological target: T1, human GPC3 on cells; experiment: FACS, GPC3-CHOK1 cells; remark: listed apart in the source
human GPC3 on cells [10] = biological target: T1, human GPC3 on cells; experiment: FACS, GPC3-CHOK1 cells; remark: listed apart in the source
Excerpt: (§2) FACS was used to evaluate the binding activity of Hu 52H5D3B8-7 and Hu 52H5D3B8-8 with comparison to benchmark antibodies GC33 and Y035 on human GPC3 expressed on CHOK1 cells, Huh-7 cell and HEPG2 cells. In order to evaluate the properties of CDRs and frameworks of Hu 52H5D3B8-7 Ab, two chimeric antibodies were generated. The antibody termed “Hu 52H5D3B8-7/8 CDRs with Y035 FRs” contains the Hu 52H5D3B8-7 CDRs and the Y035 FRs. The antibody termed “Y035 CDRs with Hu 52H5D3B8-7 FRs” represents the chimeric antibody with the Y035 CDRs engrafted to Hu 52H5D3B8-7 FRs.

human GPC3 on cells [11] = biological target: T1, human GPC3 on cells; experiment: FACS, HEPG2 cells
Excerpt: as §2

human GPC3 on cells [12] = biological target: T1, human GPC3 on cells; experiment: FACS, Huh-7 cells; remark: listed apart in the source
Excerpt: as §2

human GPC3 on cells [13] = biological target: T1, human GPC3 on cells; experiment: cell-based or functional assay; remark: listed apart in the source
human GPC3 on cells [14] = biological target: T1, human GPC3 on cells; experiment: FACS, Huh-7 cells; remark: listed apart in the source
Protocol: as §1

human GPC3 on cells [15] = biological target: T1, human GPC3 on cells; experiment: FACS, GPC3-CHOK1 cells; remark: listed apart in the source
Protocol: as §1

EC50 (human GPC3 on cells [1]) [µg/mL]	EC50 (human GPC3 on cells [2]) [µg/mL]	Kd [3] [nM]	koff [3] [s⁻¹]	kon [3] [M⁻¹ s⁻¹]	EC50 (human GPC3 on cells [4]) [nM]	EC50 (human GPC3 on cells [5]) [nM]	internalization activity to HEPG2 cells, EC50 (pHAb dye fluorescence) (human GPC3 on cells [6]) [µg/mL]	internalization activity to HEPG2 cells, Top (pHAb dye fluorescence) (human GPC3 on cells [6])	EC50 (human GPC3 on cells [7]) [nM]	EC50 (human GPC3 on cells [8]) [nM]	EC50 (human GPC3 on cells [9]) [nM]	EC50 (human GPC3 on cells [10]) [nM]	EC50 (human GPC3 on cells [11]) [nM]	EC50 (human GPC3 on cells [12]) [nM]	internalization activity to HEPG2 cells, EC50 (pHAb dye fluorescence) (human GPC3 on cells [13]) [µg/mL]	EC50 (human GPC3 on cells [14]) [µg/mL]	EC50 (human GPC3 on cells [15]) [µg/mL]	Binder
0.0384	0.0294	3.22	0.001	310000														Hu 52H5D3B8-12 (antibody, V domains shown, humanized 52H5D3B8; also called 52H5D3B8 VH5 + VL1) VH: EVQLVQSGAEVKKPGASVKVSCKASGYTFTDYEMHWVRQAPGQGLEWIGAIHPGSGGTAYNQKFKGKATLTADKSISTAYMELSRLRSDDTAVYYCTRFYSYAYWGQGTLVTVSS VL: DVVMTQTPLSLSVTPGQPASISCRSSQSLVHSNGNTYLQWYLQKPGQSPQLLIYKVSNRFSGVPDRFSGSGSGTDFTLKISRVEAEDVGVYFCSQSIHVPYTFGGGTKVEIK
					1.42	1.25	1.08	52000	1.18	1.59	1.46							Y035 (Carsgen Therapeutics, US20190046659) (antibody, from another filing, V domains shown) VH: EVQLVQSGAEVKKPGASVKVSCKASGYTFSDYEMHWVRQAPGQGLEWMGAIHPGSGDTAYNQRFKGRVTITADKSTSTAYMELSSLRSEDTAVYYCARFYSYAYWGQGTLVTVSA VL: DIVMTQTPLSLPVTPGEPASISCRSSQSLVHSNGNTYLQWYLQKPGQSPQLLIYKVSNRFSGVPDRFSGSGSGTDFTLKISRVEAEDVGVYYCSQSIYVPYTFGQGTKLEIKR
												0.985	1.05	0.667	1.11			Y035 CDRs with Hu 52H5D3B8-7 FRs (antibody, V domains shown) VH: EVQLVQSGAEVKKPGASVKVSCKASGYTFTDYEMHWVRQAPGQGLEWMGAIHPGSGDTAYNQRFKGRVTMTADKSISTAYMELSRLRSDDTAVYYCTRFYSYAYWGQGTLVTVSS VL: DVVMTQTPLSLSVTPGQPASISCRSSQSLVHSNGNTYLQWYLQKPGQSPQLLIYKVSNRFSGVPDRFSGSGSGTDFTLKISRVEAEDVGVYYCSQSIYVPYTFGGGTKVEIK
												0.798	1.16	0.782	1.14			Hu 52H5D3B8-7/8 CDRs with Y035 FRs (antibody, V domains shown) VH: EVQLVQSGAEVKKPGASVKVSCKASGYTHSDYEMHWVRQAPGQGLEWMGAIHPGSGGTAYNQKFKGRVTITADKSTSTAYMELSSLRSEDTAVYYCARFYSYAYWGQGTLVTVSA VL: DIVMTQTPLSLPVTPGEPASISCRSSQSLVHSNGNTYLQWYLQKPGQSPQLLIYKVSNRFSGVPDRFSGSGSGTDFTLKISRVEAEDVGVYYCSQSIHVPYTFGQGTKLEIKR
		3.23	0.00103	320000								0.467	0.757	0.464	0.72	0.0242	0.0447	Hu 52H5D3B8-7 (antibody, V domains shown, humanized 52H5D3B8; also called 52H5D3B8 VH3 + VL0) VH: EVQLVQSGAEVKKPGASVKVSCKASGYTFTDYEMHWVRQAPGQGLEWMGAIHPGSGGTAYNQKFKGRVTMTADKSISTAYMELSRLRSDDTAVYYCTRFYSYAYWGQGTLVTVSS VL: DVVMTQTPLSLSVTPGQPASISCRSSQSLVHSNGNTYLQWYLQKPGQSPQLLIYKVSNRFSGVPDRFSGSGSGTDFTLKISRVEAEDVGVYYCSQSIHVPYTFGGGTKVEIK
		3.31	0.0011	332000								0.434	0.693	0.418	0.78	0.0233	0.0432	Hu 52H5D3B8-8 (antibody, V domains shown, humanized 52H5D3B8; also called 52H5D3B8 VH3 + VL1) VH: EVQLVQSGAEVKKPGASVKVSCKASGYTFTDYEMHWVRQAPGQGLEWMGAIHPGSGGTAYNQKFKGRVTMTADKSISTAYMELSRLRSDDTAVYYCTRFYSYAYWGQGTLVTVSS VL: DVVMTQTPLSLSVTPGQPASISCRSSQSLVHSNGNTYLQWYLQKPGQSPQLLIYKVSNRFSGVPDRFSGSGSGTDFTLKISRVEAEDVGVYFCSQSIHVPYTFGGGTKVEIK
